According to patent EP1143253A1:

How the values were obtained:
[1] = target: human p97 (melanotransferrin), GPI-anchored membrane form (human) (UniProt P08582); assay: FACS on SK-MEL-28 cells; L235 hybridoma supernatant, goat anti-mouse IgG-FITC
[2] = target: human p97 (melanotransferrin), GPI-anchored membrane form (human) (UniProt P08582); assay: FACS, L235 on SK-MEL-28 cells after Pronase treatment, against untreated stained cells
[3] = target: human p97 (melanotransferrin), GPI-anchored membrane form (human) (UniProt P08582); assay: FACS, L235 on SK-MEL-28 cells after PI-PLC treatment, against untreated stained cells
[4] = target: human p97 (melanotransferrin), GPI-anchored membrane form (human) (UniProt P08582); assay: FACS, L235 on p97aWTBc7 cells after PI-PLC treatment, against untreated stained cells
[5] = target: human p97 (melanotransferrin), GPI-anchored membrane form (human) (UniProt P08582); assay: FACS on SK-MEL-28 cells pre-incubated with PI-PLC (60 min, 37 C), which removes p97; L235 supernatant, goat anti-mouse IgG-FITC
[6] = target: human p97 (melanotransferrin), GPI-anchored membrane form (human) (UniProt P08582); assay: FACS on Sf9 cells infected with p97 recombinant baculovirus p97 B-1-1; L235 supernatant, goat anti-mouse IgG-FITC
[7] = target: human p97 (melanotransferrin), GPI-anchored membrane form (human) (UniProt P08582); assay: FACS on Sf9 cells infected with p97 B-2-1, pre-incubated with PI-PLC; L235 supernatant, goat anti-mouse IgG-FITC
[8] = target: human p97 (melanotransferrin), GPI-anchored membrane form (human) (UniProt P08582); assay: FACS on Sf9 cells infected with p97 recombinant baculovirus p97 B-2-1; L235 supernatant, goat anti-mouse IgG-FITC
[9] = target: human p97 (melanotransferrin), GPI-anchored membrane form (human) (UniProt P08582); assay: FACS, L235 on p97aWTBc3 cells after PI-PLC treatment, against untreated stained cells
[10] = target: human p97 (melanotransferrin), GPI-anchored membrane form (human) (UniProt P08582); assay: FACS on Sf9 cells infected with p97 B-1-1, pre-incubated with PI-PLC; L235 supernatant, goat anti-mouse IgG-FITC
[11] = target: human transferrin receptor, membrane form (human) (UniProt P02786); assay: FACS, OKT9 on SK-MEL-28 cells after PI-PLC treatment, against untreated stained cells
UniProt P02786, sequence (P02786 whole entry): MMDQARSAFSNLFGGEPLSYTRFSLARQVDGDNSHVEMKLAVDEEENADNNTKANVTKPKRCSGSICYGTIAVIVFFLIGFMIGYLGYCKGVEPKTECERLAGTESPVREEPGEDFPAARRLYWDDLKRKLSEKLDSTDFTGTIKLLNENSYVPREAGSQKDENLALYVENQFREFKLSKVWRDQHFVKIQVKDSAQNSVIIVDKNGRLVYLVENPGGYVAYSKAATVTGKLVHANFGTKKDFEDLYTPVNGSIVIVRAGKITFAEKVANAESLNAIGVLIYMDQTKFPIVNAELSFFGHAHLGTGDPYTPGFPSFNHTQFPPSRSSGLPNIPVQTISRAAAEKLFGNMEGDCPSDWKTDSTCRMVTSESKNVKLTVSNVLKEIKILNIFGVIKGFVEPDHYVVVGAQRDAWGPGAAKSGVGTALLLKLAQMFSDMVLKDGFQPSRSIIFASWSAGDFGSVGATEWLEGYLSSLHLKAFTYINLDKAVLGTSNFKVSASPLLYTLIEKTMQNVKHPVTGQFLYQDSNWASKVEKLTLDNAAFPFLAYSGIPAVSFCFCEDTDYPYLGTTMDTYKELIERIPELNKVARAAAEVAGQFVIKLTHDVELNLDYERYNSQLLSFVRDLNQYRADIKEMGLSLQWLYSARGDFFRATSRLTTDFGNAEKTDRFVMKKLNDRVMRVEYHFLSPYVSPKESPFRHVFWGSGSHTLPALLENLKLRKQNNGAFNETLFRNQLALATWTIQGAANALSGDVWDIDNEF

[12] = target: human transferrin receptor, membrane form (human) (UniProt P02786); assay: FACS, OKT9 on SK-MEL-28 cells after Pronase treatment, against untreated stained cells
[13] = target: Thy-1 on EL-4 mouse lymphoma cells (mouse) (UniProt P01831); assay: FACS, T24/37.1 on EL-4 cells after PI-PLC treatment, against untreated stained cells
UniProt P01831, sequence (P01831 20-131): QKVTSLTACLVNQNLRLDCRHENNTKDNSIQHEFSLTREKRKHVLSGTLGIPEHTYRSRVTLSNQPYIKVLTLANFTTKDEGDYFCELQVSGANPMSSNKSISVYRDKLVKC

[14] = target: Thy-1 on EL-4 mouse lymphoma cells (mouse) (UniProt P01831); assay: FACS, T24/37.1 on EL-4 cells after Pronase treatment, against untreated stained cells

UniProt P08582, sequence (P08582 20-709): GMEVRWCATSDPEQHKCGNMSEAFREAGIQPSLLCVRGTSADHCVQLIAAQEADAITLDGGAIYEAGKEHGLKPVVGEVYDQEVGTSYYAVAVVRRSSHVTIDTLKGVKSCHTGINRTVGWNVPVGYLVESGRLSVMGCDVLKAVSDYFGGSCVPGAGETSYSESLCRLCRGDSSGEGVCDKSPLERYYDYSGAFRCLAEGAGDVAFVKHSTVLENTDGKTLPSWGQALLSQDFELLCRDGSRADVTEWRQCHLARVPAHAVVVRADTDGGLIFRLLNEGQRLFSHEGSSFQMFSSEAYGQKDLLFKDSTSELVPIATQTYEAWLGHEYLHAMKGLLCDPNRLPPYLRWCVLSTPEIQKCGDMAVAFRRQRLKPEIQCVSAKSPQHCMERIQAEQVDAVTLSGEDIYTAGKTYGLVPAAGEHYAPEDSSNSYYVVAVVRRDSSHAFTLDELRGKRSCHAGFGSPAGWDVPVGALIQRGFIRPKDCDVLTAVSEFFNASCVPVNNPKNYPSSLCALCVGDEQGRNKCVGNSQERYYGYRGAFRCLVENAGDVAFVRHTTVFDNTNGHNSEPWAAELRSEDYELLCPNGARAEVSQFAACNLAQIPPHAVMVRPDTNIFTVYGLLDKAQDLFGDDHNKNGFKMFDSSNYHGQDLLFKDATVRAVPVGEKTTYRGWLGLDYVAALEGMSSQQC

With L235 anti-human p97 monoclonal antibody the FLUORESCENCE - converted linear value (converted linear value) [1] was 128, the Fluorescene Intensity (% of Control) [2] was 82.6 % of Control and the Fluorescene Intensity (% of Control) [3] was 10.8 % of Control. The Fluorescene Intensity (% of Control) [4] was 7.5 % of Control, the FLUORESCENCE - converted linear value (converted linear value) [5] was 4.52 and the FLUORESCENCE - converted linear value (converted linear value) [6] was 112. The FLUORESCENCE - converted linear value (converted linear value) [7] was 6.85, the FLUORESCENCE - converted linear value (converted linear value) [8] was 97.4 and the Fluorescene Intensity (% of Control) [9] was 6.8 % of Control. It also gave an FLUORESCENCE - converted linear value (converted linear value) [10] of 5.74.

“OKT9 anti-human transferrin receptor monoclonal antibody” was tested, and the Fluorescene Intensity (% of Control) [11] was 120 % of Control and the Fluorescene Intensity (% of Control) [12] was 15.9 % of Control.

T24/37.1 MAb (anti-Thy-1) (antibody) was tested, and the Fluorescene Intensity (% of Control) [13] was 32.5 % of Control and the Fluorescene Intensity (% of Control) [14] was 136 % of Control.
